Data as given in US20250163140A1 (Kyowa Kirin, published 2025).

How the values were obtained:
[1] = target: T1, Recombinant Human FGF-23 (R&D Systems, Cat No. 2604-FG-025/CF) (human, UniProt Q9GZV9 25-251); assay: SPR, antibody captured by anti-human IgG, FGF-23 analyte
T1 construct: Bought protein
T1 sequence (looked up): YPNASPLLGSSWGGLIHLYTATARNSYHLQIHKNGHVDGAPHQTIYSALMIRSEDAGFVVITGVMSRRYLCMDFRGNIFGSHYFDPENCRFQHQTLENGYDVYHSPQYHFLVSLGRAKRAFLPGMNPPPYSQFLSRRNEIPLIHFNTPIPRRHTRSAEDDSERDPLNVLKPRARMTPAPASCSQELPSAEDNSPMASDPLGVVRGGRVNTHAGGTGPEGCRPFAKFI

[2] = target: T1, Recombinant Human FGF-23 (R&D Systems, …); assay: cell-based or functional assay

Row | Kd [1] | FGF23 neutralizing activity IC50 (luciferase promoter assay) [2] | Binder
1 | 0.017 nM | – | antibody D105E (antibody, human IgG1, V domains shown, also called modified antibody D105) VH: QVQLVQSGAEVKKPGASVKVSCKASGYTFTNHYMHWVRQAPGQGLEWMGIINPISGSTSNAQKFQGRVTMTRDTSTSTVYMELSSLRSEDTAVYYCARDIVDAFEFWGQGTMVTVSS VL: AIQLTQSPSSLSASVGDRVTITCRASQGISSALVWYQQKPGKAPKLLIYDASSLESGVPSRFSGSGSGTDFTLTISSLQPEDFATYYCQQFNDYFTFGPGTKVDIK
2 | 0.0639 nM | 0.0256 µg/mL | antibody D105L (antibody, human IgG1, V domains shown, also called modified antibody D105) VH: QVQLVQSGAEVKKPGASVKVSCKASGYTFTNHYMHWVRQAPGQGLEWMGIINPISGSTSNAQKFQGRVTMTRDTSTSTVYMELSSLRSEDTAVYYCARDIVDAFLFWGQGTMVTVSS VL: AIQLTQSPSSLSASVGDRVTITCRASQGISSALVWYQQKPGKAPKLLIYDASSLESGVPSRFSGSGSGTDFTLTISSLQPEDFATYYCQQFNDYFTFGPGTKVDIK
3 | 0.143 nM | 0.0467 µg/mL | antibody D105H (antibody, human IgG1, V domains shown, also called modified antibody D105) VH: QVQLVQSGAEVKKPGASVKVSCKASGYTFTNHYMHWVRQAPGQGLEWMGIINPISGSTSNAQKFQGRVTMTRDTSTSTVYMELSSLRSEDTAVYYCARDIVDAFHFWGQGTMVTVSS VL: AIQLTQSPSSLSASVGDRVTITCRASQGISSALVWYQQKPGKAPKLLIYDASSLESGVPSRFSGSGSGTDFTLTISSLQPEDFATYYCQQFNDYFTFGPGTKVDIK
4 | 1.91 nM | > 0.1 µg/mL | antibody D105R (antibody, human IgG1, V domains shown, also called modified antibody D105) VH: QVQLVQSGAEVKKPGASVKVSCKASGYTFTNHYMHWVRQAPGQGLEWMGIINPISGSTSNAQKFQGRVTMTRDTSTSTVYMELSSLRSEDTAVYYCARDIVDAFRFWGQGTMVTVSS VL: AIQLTQSPSSLSASVGDRVTITCRASQGISSALVWYQQKPGKAPKLLIYDASSLESGVPSRFSGSGSGTDFTLTISSLQPEDFATYYCQQFNDYFTFGPGTKVDIK
5 | 0.263 nM | > 0.1 µg/mL | antibody D105V (antibody, human IgG1, V domains shown, also called modified antibody D105) VH: QVQLVQSGAEVKKPGASVKVSCKASGYTFTNHYMHWVRQAPGQGLEWMGIINPISGSTSNAQKFQGRVTMTRDTSTSTVYMELSSLRSEDTAVYYCARDIVDAFVFWGQGTMVTVSS VL: AIQLTQSPSSLSASVGDRVTITCRASQGISSALVWYQQKPGKAPKLLIYDASSLESGVPSRFSGSGSGTDFTLTISSLQPEDFATYYCQQFNDYFTFGPGTKVDIK
6 | 0.0734 nM | 0.0237 µg/mL | antibody D105I (antibody, human IgG1, V domains shown, also called modified antibody D105) VH: QVQLVQSGAEVKKPGASVKVSCKASGYTFTNHYMHWVRQAPGQGLEWMGIINPISGSTSNAQKFQGRVTMTRDTSTSTVYMELSSLRSEDTAVYYCARDIVDAFIFWGQGTMVTVSS VL: AIQLTQSPSSLSASVGDRVTITCRASQGISSALVWYQQKPGKAPKLLIYDASSLESGVPSRFSGSGSGTDFTLTISSLQPEDFATYYCQQFNDYFTFGPGTKVDIK
7 | 0.262 nM | 0.0457 µg/mL | antibody D105K (antibody, human IgG1, V domains shown, also called modified antibody D105) VH: QVQLVQSGAEVKKPGASVKVSCKASGYTFTNHYMHWVRQAPGQGLEWMGIINPISGSTSNAQKFQGRVTMTRDTSTSTVYMELSSLRSEDTAVYYCARDIVDAFKFWGQGTMVTVSS VL: AIQLTQSPSSLSASVGDRVTITCRASQGISSALVWYQQKPGKAPKLLIYDASSLESGVPSRFSGSGSGTDFTLTISSLQPEDFATYYCQQFNDYFTFGPGTKVDIK
8 | 0.149 nM | 0.0779 µg/mL | antibody D105W (antibody, human IgG1, V domains shown, also called modified antibody D105) VH: QVQLVQSGAEVKKPGASVKVSCKASGYTFTNHYMHWVRQAPGQGLEWMGIINPISGSTSNAQKFQGRVTMTRDTSTSTVYMELSSLRSEDTAVYYCARDIVDAFWFWGQGTMVTVSS VL: AIQLTQSPSSLSASVGDRVTITCRASQGISSALVWYQQKPGKAPKLLIYDASSLESGVPSRFSGSGSGTDFTLTISSLQPEDFATYYCQQFNDYFTFGPGTKVDIK
9 | 0.252 nM | > 0.1 µg/mL | antibody D105Q (antibody, human IgG1, V domains shown, also called modified antibody D105) VH: QVQLVQSGAEVKKPGASVKVSCKASGYTFTNHYMHWVRQAPGQGLEWMGIINPISGSTSNAQKFQGRVTMTRDTSTSTVYMELSSLRSEDTAVYYCARDIVDAFQFWGQGTMVTVSS VL: AIQLTQSPSSLSASVGDRVTITCRASQGISSALVWYQQKPGKAPKLLIYDASSLESGVPSRFSGSGSGTDFTLTISSLQPEDFATYYCQQFNDYFTFGPGTKVDIK
10 | 0.201 nM | 0.0992 µg/mL | antibody D105P (antibody, human IgG1, V domains shown, also called modified antibody D105) VH: QVQLVQSGAEVKKPGASVKVSCKASGYTFTNHYMHWVRQAPGQGLEWMGIINPISGSTSNAQKFQGRVTMTRDTSTSTVYMELSSLRSEDTAVYYCARDIVDAFPFWGQGTMVTVSS VL: AIQLTQSPSSLSASVGDRVTITCRASQGISSALVWYQQKPGKAPKLLIYDASSLESGVPSRFSGSGSGTDFTLTISSLQPEDFATYYCQQFNDYFTFGPGTKVDIK
11 | 0.0975 nM | 0.0331 µg/mL | antibody D105G (antibody, human IgG1, V domains shown, also called modified antibody D105) VH: QVQLVQSGAEVKKPGASVKVSCKASGYTFTNHYMHWVRQAPGQGLEWMGIINPISGSTSNAQKFQGRVTMTRDTSTSTVYMELSSLRSEDTAVYYCARDIVDAFGFWGQGTMVTVSS VL: AIQLTQSPSSLSASVGDRVTITCRASQGISSALVWYQQKPGKAPKLLIYDASSLESGVPSRFSGSGSGTDFTLTISSLQPEDFATYYCQQFNDYFTFGPGTKVDIK
12 | 0.046 nM | 0.014 µg/mL | antibody D105N (antibody, human IgG1, V domains shown, also called modified antibody D105) VH: QVQLVQSGAEVKKPGASVKVSCKASGYTFTNHYMHWVRQAPGQGLEWMGIINPISGSTSNAQKFQGRVTMTRDTSTSTVYMELSSLRSEDTAVYYCARDIVDAFNFWGQGTMVTVSS VL: AIQLTQSPSSLSASVGDRVTITCRASQGISSALVWYQQKPGKAPKLLIYDASSLESGVPSRFSGSGSGTDFTLTISSLQPEDFATYYCQQFNDYFTFGPGTKVDIK
13 | 0.671 nM | > 0.1 µg/mL | antibody D105M (antibody, human IgG1, V domains shown, also called modified antibody D105) VH: QVQLVQSGAEVKKPGASVKVSCKASGYTFTNHYMHWVRQAPGQGLEWMGIINPISGSTSNAQKFQGRVTMTRDTSTSTVYMELSSLRSEDTAVYYCARDIVDAFMFWGQGTMVTVSS VL: AIQLTQSPSSLSASVGDRVTITCRASQGISSALVWYQQKPGKAPKLLIYDASSLESGVPSRFSGSGSGTDFTLTISSLQPEDFATYYCQQFNDYFTFGPGTKVDIK
14 | 0.178 nM | > 0.1 µg/mL | antibody D105F (antibody, human IgG1, V domains shown, also called modified antibody D105) VH: QVQLVQSGAEVKKPGASVKVSCKASGYTFTNHYMHWVRQAPGQGLEWMGIINPISGSTSNAQKFQGRVTMTRDTSTSTVYMELSSLRSEDTAVYYCARDIVDAFFFWGQGTMVTVSS VL: AIQLTQSPSSLSASVGDRVTITCRASQGISSALVWYQQKPGKAPKLLIYDASSLESGVPSRFSGSGSGTDFTLTISSLQPEDFATYYCQQFNDYFTFGPGTKVDIK
15 | 0.106 nM | 0.0278 µg/mL | antibody D105S (antibody, human IgG1, V domains shown, also called modified antibody D105) VH: QVQLVQSGAEVKKPGASVKVSCKASGYTFTNHYMHWVRQAPGQGLEWMGIINPISGSTSNAQKFQGRVTMTRDTSTSTVYMELSSLRSEDTAVYYCARDIVDAFSFWGQGTMVTVSS VL: AIQLTQSPSSLSASVGDRVTITCRASQGISSALVWYQQKPGKAPKLLIYDASSLESGVPSRFSGSGSGTDFTLTISSLQPEDFATYYCQQFNDYFTFGPGTKVDIK
